# Reference: patent publication US20220289837A1, “Cystic Fibrosis Transmembrane Conductance Regulator Stabilizing Agents” (VIB VZW, priority 2019, published 2022)
# B1: T2a: NBD1-specific CFTR-stabilizing nanobody, SEQ ID NO:3, binds epitope 1 (protein)
# VHH: QVQLQESGGGLVQAGGSLRLSCAASGSIFRIDAMGWYRQAPGKQRELVAHSTSGGSTDYADSVKGRFTISRDNAKNTVYLQMNSLKPEDTAVYYCNADVRTRWYASNNYWGQGTQVTVSS
# modifications: T2a Nanobody amino acid sequence
# B2: T27: NBD1-specific CFTR-stabilizing nanobody, SEQ ID NO:4, binds epitope 1 (protein)
# VHH: QVQLQESGGGLEQPGGSLRLSCATSGVIFGINAMGWYRQAPGKQRELVATFTSGGSTNYADFVEGRFTISRDNAKNTVYLQMNGLRPEDTAVYYCHATVVVSRYGLTYDYWGQGTQVTVSS
# modifications: T27 Nanobody amino acid sequence
# B3: G3a: non-stabilizing nanobody, SEQ ID NO:50, recognizes the structurally diverse region of NBD1 (protein)
# VHH: QVQLQESGGGLVQAGGSLRLSCTASGRAFSWYVMGWFRQAPGKEREFVATVSGNGSRRDYADSVKGRFTISRDNAKNTVYLQMNSLKPEDTAVYYCAASSTYYYTDPEKYDYWGQGTQVTVSS
# modifications: G3a Nanobody
# B4: T8: nanobody, SEQ ID NO:7, binds epitope 2 including F508, stabilizes WT CFTR but not F508del (protein)
# VHH: QVQLQESGGGLVQPGGSLRLSCAASGSTSSINAMGWYRQAPGKQREPVAISSSGGDTRYAEPVKGRFTISRDNAQNKVYLQMNSLKPEDTAVYYCWLNWGRTSVNSWGQGTQVTVSS
# modifications: T8 Nanobody amino acid sequence
# B5: D12: NBD1-specific CFTR-stabilizing nanobody, SEQ ID NO:2, binds epitope 1 (protein)
# VHH: QVQLQESGGGLVQAGSSLRLACAATGSIRSINNMGWYRQAPGKQRGMVAIITRVGNTDYADSVKGRFTISRDNAKNTVYLQMNSLKPEDTATYYCHAEITEQSRPFYLTDDYWGQGTQVTVSS
# modifications: D12 Nanobody amino acid sequence
# Tests used:
# F508del-2PT-NBD1 = molecular target: T1, F508del-2PT-NBD1 (Homo sapiens, UniProt P13569, A534P/DEL508-508/I539T/S492P/V470M); assay: Thermal shift assay (DSF) of F508del-2PT-NBD1; format: binding
# T1 construct: His6-SUMO (N, cleaved yes); made in house; host or cells: Escherichia coli BL21(DE3) pLysS
# T1 sequence (P13569 with tags, fused parts or gaps V470M/S492P/DEL508-508/A534P/I539T limits assumed): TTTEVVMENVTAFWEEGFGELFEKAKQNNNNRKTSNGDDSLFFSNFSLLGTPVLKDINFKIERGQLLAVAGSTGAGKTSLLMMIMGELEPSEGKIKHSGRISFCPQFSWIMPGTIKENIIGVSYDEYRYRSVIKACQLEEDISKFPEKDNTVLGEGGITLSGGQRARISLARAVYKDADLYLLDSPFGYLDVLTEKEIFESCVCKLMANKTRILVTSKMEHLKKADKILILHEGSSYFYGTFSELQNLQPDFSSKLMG
# Experimental: Solutions of either 2PT-NBD1 or F508del-2PT-NBD1 (10 μM final concentration), nanobodies (30 μM final concentration) and 2.5× or 5× concentrated SYPRO Orange Protein Stain (Molecular Probes) diluted in 20 mM HEPES pH 7.5, 150 mM NaCl, 3 mM MgCl2, 2 mM ATP and 10% (w/v) glycerol, 10% (w/v) ethylene glycol, were added to the wells of a 96-well PCR plates type BR white (VWR) in a final volume of 25 μl. Plates were sealed with EasySeal sheets (Molecular dimensions) and spun 2 min at 900× g. SYPRO orange fluorescence was monitored in CFX96 Touch Real-Time PCR Detection System (Bio-Rad) using FRET scan mode from 10 to 80° C. in increments of either 1° C. or 0.2° C.
# wt-CFTR = wt-CFTR (Homo sapiens, UniProt P13569); assay: ATPase activity of wt-CFTR; format: biochemical; parameters: His10-SUMO* (N); FLAG; EGFP (C); made in house; host or cells: HEK 293 cell line D165; settings: saturating concentration of nanobody
# Chain of wt-CFTR (P13569 whole entry): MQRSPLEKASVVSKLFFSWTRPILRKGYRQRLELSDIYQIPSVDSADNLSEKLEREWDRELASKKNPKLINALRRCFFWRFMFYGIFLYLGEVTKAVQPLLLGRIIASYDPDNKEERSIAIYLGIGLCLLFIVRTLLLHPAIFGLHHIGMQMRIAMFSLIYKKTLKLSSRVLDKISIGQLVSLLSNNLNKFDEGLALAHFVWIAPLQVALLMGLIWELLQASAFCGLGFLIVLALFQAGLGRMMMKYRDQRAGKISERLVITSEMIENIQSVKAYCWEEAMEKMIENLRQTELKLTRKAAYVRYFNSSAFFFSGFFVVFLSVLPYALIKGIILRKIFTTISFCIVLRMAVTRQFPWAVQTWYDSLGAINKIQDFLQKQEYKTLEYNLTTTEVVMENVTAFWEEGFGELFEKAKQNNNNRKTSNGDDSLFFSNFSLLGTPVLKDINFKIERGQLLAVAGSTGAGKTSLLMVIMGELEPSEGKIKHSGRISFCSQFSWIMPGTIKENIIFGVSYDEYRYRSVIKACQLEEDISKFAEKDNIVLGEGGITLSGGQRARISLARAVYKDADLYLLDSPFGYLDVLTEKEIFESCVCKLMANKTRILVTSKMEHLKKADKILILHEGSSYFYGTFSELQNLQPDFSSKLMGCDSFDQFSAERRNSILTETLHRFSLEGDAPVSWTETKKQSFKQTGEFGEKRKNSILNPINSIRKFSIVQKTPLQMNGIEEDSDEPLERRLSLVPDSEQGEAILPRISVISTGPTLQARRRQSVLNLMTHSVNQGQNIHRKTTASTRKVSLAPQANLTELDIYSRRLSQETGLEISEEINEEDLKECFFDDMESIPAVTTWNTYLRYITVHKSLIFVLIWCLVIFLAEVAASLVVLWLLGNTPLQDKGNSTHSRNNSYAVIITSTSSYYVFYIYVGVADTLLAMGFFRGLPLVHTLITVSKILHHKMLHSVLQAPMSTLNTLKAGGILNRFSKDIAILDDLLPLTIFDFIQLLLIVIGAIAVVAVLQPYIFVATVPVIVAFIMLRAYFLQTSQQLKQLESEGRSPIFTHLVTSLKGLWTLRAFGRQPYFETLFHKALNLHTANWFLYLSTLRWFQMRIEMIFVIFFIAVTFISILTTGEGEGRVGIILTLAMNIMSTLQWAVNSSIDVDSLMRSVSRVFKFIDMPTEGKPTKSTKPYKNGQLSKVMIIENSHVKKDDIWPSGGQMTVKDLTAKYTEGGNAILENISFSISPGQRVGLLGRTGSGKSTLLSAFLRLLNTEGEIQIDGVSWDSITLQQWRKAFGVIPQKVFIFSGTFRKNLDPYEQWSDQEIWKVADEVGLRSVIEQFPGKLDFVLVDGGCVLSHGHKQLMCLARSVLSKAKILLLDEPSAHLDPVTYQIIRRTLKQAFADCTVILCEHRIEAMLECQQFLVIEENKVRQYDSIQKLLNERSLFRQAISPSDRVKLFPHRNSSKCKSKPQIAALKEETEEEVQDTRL
# Experimental: To determine effect of nanobodies on functional stability, aliquots of purified wt-CFTR (25 nM) were preincubated 1 h on ice with 1 μM nanobody (or 15 μM, in the case of G3a). Substrate α-[32P]-ATP (2 μl) was then added for measurement of ATPase activity as previously described^[48]. Then, nanobody protection against thermal denaturation was determined after a 30 min thermal challenge of the protein complexes followed by an assay of residual ATPase.
# [1] = molecular target: T2, purified human CFTR (wt-CFTR) (Homo sapiens, UniProt P13569); assay: Full-length CFTR ELISA; format: binding; settings: for binding of purified FL-CFTR: nanobodies immobilized, purified FL-CFTR titrated; for Bmax: immobilized CFTR, nanobodies titrated
# T2 construct: His10-SUMO* (N); FLAG; EGFP (C); made in house; host or cells: HEK 293 cell line D165
# T2 sequence (P13569 whole entry): as above
# Experimental: Strep-Tactin XT coated microplate (iba Life Science) was coated overnight at 4° C. with Twin-Strep-tagged nanobodies (5 μg/ml). Plate was blocked with 4% milk for 2 h at RT. Then different concentrations of CFTR (10^−10 to 10^−8 M) were incubated for 2 h at 4° C. CFTR binding was detected with monoclonal antibodies L12B4, MM13, 154, 660, 570, 596 specific to CFTR obtained from the CFTR Antibody Distribution Program (http://cftrantibodies.web.unc.edu/available-antibodies)46 and then anti-mouse-HRP antibody (Millipore, catalogue number: AP308P, 0.5 μg/ml) for 1 h 30 min at 4° C. For Bmax determination Pierce Nickel Coated Plate (ThermoScientific) was coated 1 h at 4° C. with CFTR (8 μg/ml). Plate was blocked with 4% milk for 2 h at 4° C. Then different concentrations of nanobodies (10^−9 to 10^−6 M) were incubated for 2 h at 4° C. Nanobody binding was detected with Myc-tag specific antibody (Sigma, catalogue number: C3956, 0.5 μg/ml) and then anti-rabbit-HRP antibody (Cell Signaling, catalogue number: 7074S, 1:1000 dilution) for 1 h 30 min at 4° C. Between each step wells were washed 3 times by aspiration with 50 mM HEPES pH 7.5, 150 mM NaCl, 10% glycerol, 2 mM ATP, 2.5 mM MgCl2, 0.01% DMNG (Anatrace). Incubations were performed in the same buffer with 0.4% milk. Reaction was visualized by using 1-Step Ultra TMB-ELISA (ThermoScientific) and stopped with H2SO4 (500 mM final). Absorbance was measured at 450 nm using SynergyMx (BioTek).
# Affinity constants (KD) and thermodynamic parameters from ITC experiments were determined using one-site binding model with MicroCal Origin 7.0 software (Origin Lab Corp.). Dose response ELISA curves of each Nb binding to either isolated NBD1 or purified FL-CFTR were fitted using the sigmoidal dose-response equation from GraphPad Prism 3. DSC data were analyzed with the MicroCal Origin 7.0 software (Origin Lab Corp.), from which the unfolding temperature (Tm) was obtained.
# 2PT-NBD1-RE = assay: NBD1 ELISA dose-response, binding to 2PT-NBD1-RE; parameters: species or system human; settings: for binding to 2PT-NBD1-RE: construct containing the regulatory extension
# Chain of 2PT-NBD1-RE (P13569 387-678 S492P/A534P/I539T): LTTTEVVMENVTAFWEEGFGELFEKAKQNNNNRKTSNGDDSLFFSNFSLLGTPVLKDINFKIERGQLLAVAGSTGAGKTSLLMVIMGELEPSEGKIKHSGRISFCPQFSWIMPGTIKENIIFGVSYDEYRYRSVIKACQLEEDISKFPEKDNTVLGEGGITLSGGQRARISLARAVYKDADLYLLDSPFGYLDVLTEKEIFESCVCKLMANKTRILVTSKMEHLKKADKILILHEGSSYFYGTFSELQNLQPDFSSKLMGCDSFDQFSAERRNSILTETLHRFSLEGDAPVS
# Excerpt: Human ΔRI-NBD1 (residues 387-646, A405-436; SEQ ID NO:59) construct was obtained from Arizona State University Plasmid Repository (clone id: 287374), 2PT-NBD1 mutants (residues 387-646 containing the mutations S492P, A534P, I539T; SEQ ID NO:58), 2PT-NBD1-RE (2PT-NBD1 with residues 387-678) were constructed using WT-NBD1 construct from ASU (clone id: 287401). Mutations were introduced by PCR using PfuUltra high-fidelity DNA polymerase from Agilent (catalogue number: 600382) and sequences were confirmed by automated DNA sequencing (UNC-CH Genome Analysis Facility). Proteins were expressed as N-terminal, His6-SUMO fusion proteins in Escherichia coli (BL21(DE3) pLysS cells, Millipore) as described in [5,11] with the following modifications. Cells were lysed using a French press and recombinant proteins were purified by nickel ion affinity chromatography (HisTrap HP, 1 ml—GE Healthcare). The His6-SUMO tag was removed using Ulp1 protease at 1/100 weight/weight ratio during 20 min on ice. […] Protein concentration was determined using Coomassie Plus (Bradford) Assay Kit (Thermo Scientific).
# For dose-response assays, Nunc MaxiSorp 96-well plates (ThermoScientific), were coated with 5 μg/ml NeutrAvidin Biotin-Binding protein (ThermoScientific) overnight at 4° C. and blocked 2 h at room temperature (RT) with 2% milk in phosphate-buffered saline (PBS). Each new reagent addition was preceded by three washes with 200 μl of NBD1 buffer (20 mM HEPES pH 7.5, 150 mM NaCl, and 10% (w/v) glycerol, 10% (w/v) ethylene glycol, 2 mM ATP, 3 mM MgCl2). Then, biotinylated purified NBD1 proteins at 5 μg/ml were immobilized 30 min at RT followed by 1 h RT incubation with 100 μl various concentrations (0-20 μg/ml) of purified nanobodies. Signal detection was followed using His-tag specific antibody (Invitrogen, catalogue number: MA1-135, 1:3000 dilution) to detect the nanobodies and secondary antibody anti-mouse coupled to horse radish peroxidase (HRP) (Millipore, catalogue number: AP308P, 1:5000 dilution). 50 μl of 1-Step UltraTMB-ELISA (ThermoScientific) was used as a substrate for the peroxidase and intensity of the reaction was proportional to absorbance measured at 450 nm with SynergyMx (BioTek) after addition of 50 μl H2SO4 at 1M.
Molecule,stabilization of F508del-2PT-NBD1 (F508del-2PT-NBD1),ATPase activity (wt-CFTR),binding of purified FL-CFTR [1],apparent EC50 on 2PT-NBD1-RE compared to 2PT-NBD1 (2PT-NBD1-RE),binding to 2PT-NBD1-RE (2PT-NBD1-RE),Bmax [1]
B1,to the same extent as 2PT-NBD1,50 % of PKA-phosphorylated CFTR,bind with high affinity,decrease in apparent EC50,high-affinity binding,
B2,to the same extent as 2PT-NBD1,30 % of PKA-phosphorylated CFTR,,decrease in apparent EC50,high-affinity binding,
B3,,did not affect,bind with high affinity,,,about 50 % of T2a maximum signal
B4,did not stabilize,60 % of PKA-phosphorylated CFTR,bind with high affinity,,,~30 % of T2a maximum signal
B5,to the same extent as 2PT-NBD1,50 % of PKA-phosphorylated CFTR,,decrease in apparent EC50,high-affinity binding,
